Data as given in article PMC7405475.

Biological target: His6-maltose binding protein-SARS-CoV-2 N3 (spacer B/N3 region, residues 365-419) (SARS-CoV-2) (UniProt P0DTC9)
Assay: SEC-MALS

## His6-maltose binding protein-SARS-CoV-2 N3 (spacer B/N3 region, residues 365-419) (from UniProt P0DTC9 365-419) (domain or fragment)
  stoichiometry N: 2
